Reference: article PMC1847684, “Isolation and functional characterization of a cDNA coding a hydroxycinnamoyltransferase involved in phenylpropanoid biosynthesis in Cynara cardunculus L” (BMC Plant Biology, 2007)

Columns and labels:
Assay in all cases: HPLC product assay, Lineweaver-Burk
Assay type in all cases: biochemical, Cynara cardunculus
[1] = substrate: CC(C)(COP(=O)(O)OP(=O)(O)OC[C@H]1O[C@@H](n2cnc3c(N)ncnc32)[C@H](O)[C@@H]1OP(=O)(O)O)[C@@H](O)C(=O)NCCC(=O)NCCSC(=O)/C=C/c1ccc(O)c(O)c1; settings: 20 mM quinate as acceptor, sodium phosphate pH 7.5, 1 mM DTT, 30 C
Description: (§1) HPLC product assay, Lineweaver-Burk on HCT (globe artichoke hydroxycinnamoyltransferase; CcHCT)

[2] = substrate: CC(C)(COP(=O)(O)OP(=O)(O)OC[C@H]1O[C@@H](n2cnc3c(N)ncnc32)[C@H](O)[C@@H]1OP(=O)(O)O)[C@@H](O)C(=O)NCCC(=O)NCCSC(=O)/C=C/c1ccc(O)cc1; settings: 20 mM quinate as acceptor, sodium phosphate pH 7.5, 1 mM DTT, 30 C, recombinant bacterial extract (discussion says purified, no purification described)
Description: as §1

[3] = substrate: O=C(O)[C@]1(O)C[C@@H](O)[C@@H](O)[C@H](O)C1; settings: 300 μM p-coumaroyl-CoA as donor, sodium phosphate pH 7.5, 1 mM DTT, 30 C
Description: as §1

B1: HCT (globe artichoke hydroxycinnamoyltransferase; CcHCT) (Cynara cardunculus) (protein)
chain: MKIEVRESTMVRPAEETPRINLWNSNVDLVVPNFHTPSVYFYRPNGAANFFDPKVMKDALSRALVPFYPMGGRLKRDEDGRIEIDCQGQGVLFVEAESDGVIDDFGDFAPTLELRKLIPAVDYTLGIESYSLLVLQVTYFKCGGVSLGVGMQHHAADGASGLHFINTWSDLARGLDLAVPPFIDRTLLRSRDPPQPAFDHIEYQPAPPMKTAPTPTPTDDESVPETTVSIFKLTRDQVNALKGKSKEDGNTVNYSSYEMLSGHVWRCVCKARGLPDDQDTKLYIATDGRARLRPSLPRGYFGNVIFTTTPIAVAGDLQSKPTWYAASKIHDALARMDDDYLKSALDYLELQPDLKALVRGAHTFKCPNLGITSWARLPIHDADFGWGRPIFMGPGGIAYEGLSFVLPSPINDGSLSIVISLQAEHMKLFSKFLYDI
notes: full-length ORF (1308 bp, 436 residues printed, ~50 kDa), pET3a NdeI/BamHI, no tag mentioned, E. coli BL21(DE3) pLysE at 28 C
[1]
  Km: 61.75 ± 0.004 µM
  Vmax: 0.0402 µmol/min/mg
  Vmax/Km: 600 µL/min/mg
[2]
  Km: 53.0 ± 13.0 µM
  Vmax: 0.132 µmol/min/mg
  Vmax/Km: 2460 µL/min/mg
[3]
  Km: 9200 ± 5600 µM
  Vmax: 0.126 µmol/min/mg
  Vmax/Km: 12 µL/min/mg
